# Experimental data reported in patent US20100022006, “GAMMA SATELLITE INSULATOR SEQUENCES AND THEIR USE IN PREVENTING GENE SILENCING” (THE GOVT. OF THE USA AS REPRESENTED BY THE SECRETA, published 2010).
# Where a chain is given by its changes, count along the chain named.
# B1: gamma-satellite 8 monomer 8 WT-8 core (dsDNA)
# DNA 1: CGAAAATGGGGCCACTGGGTGGCCTGAACGAGCCAAAGGGACTCAGGGTGACACT
# DNA 2: AGTGTCACCCTGAGTCCCTTTGGCTCGTTCAGGCCACCCAGTGGCCCCATTTTCG
# B2: gamma-satellite 8 monomer 8 Mu1 (dsDNA)
# DNA 1: B1 DNA 1 with G17A, G18A, G19A, C23T
# DNA 2: B1 DNA 2 with G33A, C37T, C38T, C39T
# B3: gamma-satellite 8 monomer 8 Mu3 (dsDNA)
# DNA 1: B1 DNA 1 with C12T, C15T, G17A, C23T, C29T
# DNA 2: B1 DNA 2 with G27A, G33A, C39T, G41A, G44A
# B4: gamma-satellite 8 monomer 8 Mu2 (dsDNA)
# DNA 1: B1 DNA 1 with G18A, C23T, C24T, C29T
# DNA 2: B1 DNA 2 with G27A, G32A, G33A, C38T
# B5: gamma-satellite 8 fragment 6 (monomer 5) (dsDNA)
# DNA 1: CAAAAACAGTGCCGCAGTGTGGCCTGGGCGGGCCACAGGGACTCAGGGAGACGTTGAGG
# DNA 2: CCTCAACGTCTCCCTGAGTCCCTGTGGCCCGCCCAGGCCACACTGCGGCACTGTTTTTG
# B6: gamma-satellite 8 fragment 10 (monomer 7) (dsDNA)
# DNA 1: TGAAAACAGGGAGGCAGGGTGGCATGGCCAGGCCGCAGGGACTATGGTGGACATTGTGG
# DNA 2: CCACAATGTCCACCATAGTCCCTGCGGCCTGGCCATGCCACCCTGCCTCCCTGTTTTCA
# B7: gamma-satellite 8 fragment 5 (monomer 4) (dsDNA)
# DNA 1: CAAAAACAAGGCCGCAGGGTGGCGTGGGCGGGCCGCAGGGACTCAGGTGGAAATTGTGG
# DNA 2: CCACAATTTCCACCTGAGTCCCTGCGGCCCGCCCACGCCACCCTGCGGCCTTGTTTTTG
# B8: gamma-satellite 8 fragment 8 (monomer 6) (dsDNA)
# DNA 1: AGACAACAGGGCGGCTGGATGGCATGGGCCGATCGTAGGAACCCAGGGAGACATTGAGG
# DNA 2: CCTCAATGTCTCCCTGGGTTCCTACGATCGGCCCATGCCATCCAGCCGCCCTGTTGTCT
# B9: gamma-satellite 8 fragment 11 (monomer 8) (dsDNA)
# DNA 1: CGAAAATGGGGCCACTGGGTGGCCTGAACGAGCCAAAGGGACTCAGGGTGACACTGAGG
# DNA 2: CCTCAGTGTCACCCTGAGTCCCTTTGGCTCGTTCAGGCCACCCAGTGGCCCCATTTTCG
# B10: SssI-methylated gamma-satellite 8 fragment (dsDNA)
# DNA 1: B9 DNA 1
# DNA 2: B9 DNA 2
# modifications: 5mC at CpG (SssI)
# Assays:
# [1] = target: T1, CTCF 11 ZF DNA binding domain (UniProt P49711 P49711:266-577); experiment: footprint; methylation interference on fragment 11: seven contact guanines (3 sense, 4 antisense); 55 bp core of 100 bp fragment printed; details: tags: pET16b-11ZF construct, TnT reticulocyte lysate (Promega)
# T1 sequence: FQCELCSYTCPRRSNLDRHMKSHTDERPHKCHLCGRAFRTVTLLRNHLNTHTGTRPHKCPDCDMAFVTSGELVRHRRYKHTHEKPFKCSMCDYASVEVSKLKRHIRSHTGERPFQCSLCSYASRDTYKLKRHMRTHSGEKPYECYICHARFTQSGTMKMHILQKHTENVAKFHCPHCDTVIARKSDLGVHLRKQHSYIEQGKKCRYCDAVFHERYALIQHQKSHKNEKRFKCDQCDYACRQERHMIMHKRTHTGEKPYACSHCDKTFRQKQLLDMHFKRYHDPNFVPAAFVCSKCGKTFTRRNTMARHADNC
# Experimental: (§1) Binding reactions were carried out in buffer containing standard PBS with 5 μM MgCl₂, 0.1 μM ZnSO4, 1 μM DTT, 0.1% NP40, and 10% glycerol in the presence of poly(deoxyinosinic-deoxy-CMP) and salmon sperm DNA. Reaction mixtures of 20 μL final volume were incubated for 30 minutes at room temperature and then analyzed on 5% nondenaturing gel using polyacrylamide gel electrophoresis (PAGE) in 0.5×TBE buffer. For EMSA with in vitro methylated DNA probes, treatment with the SssI-methylase was done as previously described for CTCF-binding fragments DMD4 and DMD7 of the H19 ICR (Kanduri et al., Curr. Biol., 10:853-856, 2000). The extent of methylation was verified by digestion overnight with Sau96I restriction endonuclease. Methylation interference analysis was carried out as described previously (Filippova et al., 1996; ibid).
# To determine the contact guanine residues recognized by CTCF in gamma-satellite DNA, methylation interference assays (a method that identifies guanine residues in the CTCF binding site that make contact with CTCF zinc fingers) were conducted using a ³²P-labeled fragment of the gamma-satellite monomer (fragment #11). A strong interference of guanine methylation with CTCF-DNA binding was found in three and four guanine residues on sense and anti-sense strands, respectively (FIG. 5B). […]
# [2] = target: T1, CTCF 11 ZF DNA binding domain; experiment: EMSA; mutation knocked down binding; details: tags: pET16b-11ZF construct, TnT reticulocyte lysate (Promega)
# Experimental: as §1, with “Gamma-satellite monomers from human chromosome X and Y were PCR amplified from genomic DNA, cloned into TA vector and sequenced before their analysis by electrophoretic mobility gel-shift assay (EMSA). Binding” for “Binding”
# To confirm in vitro mapping results, four guanine residues within the predicted core sequence were selectively mutated, as indicated in FIG. 12. […] To determine if CTCF binding is methylation-dependent, gamma-satellite 8 PCR fragments were methylated with a SssI methyltransferase. […] It is worth noting that in most previously reported cases, methylation prevents CTCF binding (Ohlsson et al., Trends Genet., 17:520-527, 2001).
# [3] = target: T1, CTCF 11 ZF DNA binding domain; experiment: EMSA; among strongest binding; details: tags: pET16b-11ZF construct, TnT reticulocyte lysate (Promega); label: 32P
# Experimental: as §1, with “Gamma-satellite monomers from human chromosome X and Y were PCR amplified from genomic DNA, cloned into TA vector and sequenced before their analysis by electrophoretic mobility gel-shift assay (EMSA). Binding” for “Binding”
# Electrophoretic mobility shift assays (EMSA) were performed. A set of overlapping fragments corresponding to an 1′-mer of the human gamma 8, were radiolabeled and incubated with the in vitro translated 11 ZF DNA binding domain of the CTCF protein. Recombinant luciferase protein prepared by the same in vitro translation reaction was used as a negative control. […] The presence of CTCF-binding sites was also checked in the human alpha-satellite DNA array lacking anti-silencing (insulating) activity. None of 11 alpha-satellite monomers analyzed bound the CTCF protein in vitro.
# [4] = target: Luciferase (in vitro translated control) (UniProt P08659 P08659:1-550); experiment: EMSA; negative control lysate; details: tags: Luciferase T7 control DNA (Promega); label: 32P
# Chain of Luciferase (in vitro translated control) (P08659 whole entry, one chain of several): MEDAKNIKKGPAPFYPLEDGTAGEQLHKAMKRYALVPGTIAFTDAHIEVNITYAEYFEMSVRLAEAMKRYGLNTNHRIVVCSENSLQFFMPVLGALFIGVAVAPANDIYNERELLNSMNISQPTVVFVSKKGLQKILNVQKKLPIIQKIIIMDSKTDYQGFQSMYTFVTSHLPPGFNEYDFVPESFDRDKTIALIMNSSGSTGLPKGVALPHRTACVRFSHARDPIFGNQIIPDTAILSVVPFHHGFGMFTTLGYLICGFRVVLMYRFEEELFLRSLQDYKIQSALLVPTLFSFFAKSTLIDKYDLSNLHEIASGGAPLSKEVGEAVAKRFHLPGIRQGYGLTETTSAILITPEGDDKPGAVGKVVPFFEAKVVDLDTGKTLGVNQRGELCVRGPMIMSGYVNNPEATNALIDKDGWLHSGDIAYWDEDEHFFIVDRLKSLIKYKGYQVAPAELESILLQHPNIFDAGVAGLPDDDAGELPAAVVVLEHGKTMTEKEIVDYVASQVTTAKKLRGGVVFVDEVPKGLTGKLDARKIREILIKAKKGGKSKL
# Experimental: as §1, with “Gamma-satellite monomers from human chromosome X and Y were PCR amplified from genomic DNA, cloned into TA vector and sequenced before their analysis by electrophoretic mobility gel-shift assay (EMSA). Binding” for “Binding”
# (§2) Electrophoretic mobility shift assays (EMSA) were performed. A set of overlapping fragments corresponding to an 1′-mer of the human gamma 8, were radiolabeled and incubated with the in vitro translated 11 ZF DNA binding domain of the CTCF protein. […] None of 11 alpha-satellite monomers analyzed bound the CTCF protein in vitro.
# [5] = target: T1, CTCF 11 ZF DNA binding domain; experiment: EMSA; among strongest binding; PBS, Mg, Zn, poly(dI-dC), room temperature; ~250 bp probe containing the monomer; details: tags: pET16b-11ZF construct, TnT reticulocyte lysate (Promega); label: 32P
# Experimental: as §1, with “Gamma-satellite monomers from human chromosome X and Y were PCR amplified from genomic DNA, cloned into TA vector and sequenced before their analysis by electrophoretic mobility gel-shift assay (EMSA). Binding” for “Binding”
# as §2
# [6] = target: T1, CTCF 11 ZF DNA binding domain; experiment: EMSA; CpG methylation does not affect binding; details: tags: pET16b-11ZF construct, TnT reticulocyte lysate (Promega); label: 32P
# Experimental: as §1, with “Gamma-satellite monomers from human chromosome X and Y were PCR amplified from genomic DNA, cloned into TA vector and sequenced before their analysis by electrophoretic mobility gel-shift assay (EMSA). Binding” for “Binding”
# To confirm in vitro mapping results, four guanine residues within the predicted core sequence were selectively mutated, as indicated in FIG. 12. […] To determine if CTCF binding is methylation-dependent, gamma-satellite 8 PCR fragments were methylated with a SssI methyltransferase. […]
Binder,binding result [2],binding result [3],further results
B1,–,–,binding result [1]: binds
B2,no binding,–,–
B3,no binding,–,–
B4,no binding,–,–
B5,–,binds,–
B6,–,binds,–
B7,–,binds,–
B8,–,binds,–
B9,–,–,binding result [4]: no binding; binding result [5]: binds
B10,–,–,binding result [6]: binds
